Measured values from US20250333531A1 (NORDIC NANOVECTOR ASA, published 2025).
Positions count from the first letter of the chain named.

B1: AH02877 (antibody, human IgG1, V domains shown)
VH: QVQLVQSGAEVVKPGASVKVSCKASGYSFTDYNMYWVKQAPGQRLEWMGYIDPYNGDTTYNQKFKGRATLTVDTSASTAYIELSSLRSEDTAVYYCARSPYGHYAMDYWGQGTLVTVSS
VL: DIQMTQSPSSLSASVGDRVTITCKASQDVSTAVDWYQQKPGKSPKLLINWASTRHTGVPSRFSGSGSGTDYTLTISSLQPEDFATYYCRQHYSTPFTFGQGTKLEIKR
notes: Full-length human IgG1 kappa; constant domains from NNV003; also called NNV020 #3
B2: AH02879 (antibody, human IgG1, V domains shown)
VH: B1 VH with V2I, M48I, V72R, I81M
VL: B1 VL with A13T, L78M
notes: Full-length human IgG1 kappa; constant domains from NNV003; also called NNV020 #4
B3: AH02875 (antibody, human IgG1, V domains shown)
VH: B1 VH with V2I, V11L, V12K, K38R, L70I, V72R
VL: B1 VL with L78M
notes: Full-length human IgG1 kappa; also called NNV020 #2
B4: rituximab (antibody, human IgG1, kappa)
chain 1: not shown
chain 2: QIVLSQSPAILSASPGEKVTMTCRASSSVSYIHWFQQKPGSSPKPWIYATSNLASGVPVRFSGSGSGTSYSLTISRVEAEDAATYYCQQWTSNPPTFGGGTKLEIKRTVAAPSVFIFPPSDEQLKSGTASVVCLLNNFYPREAKVQWKVDNALQSGNSQESVTEQDSKDSTYSLSSTLTLSKADYEKHKVYACEVTHQGLSSPVTKSFNRGEC
B5: DuoHexaBody-CD37 (bispecific antibody, human IgG1, kappa)
heavy 1: not shown
light 1: YDMTQSPSTLSASVGDRVTITCQASQNIIDYLAWYQQKPGKAPKLLIHKASTTLASGVPSRFKGSGSGTEFTLTISSLQPDDFATYYCQQGYSNSNIDNTFGGGTKVEIKRTVAAPSVFIFPPSDEQLKSGTASVVCLLNNFYPREAKVQWKVDNALQSGNSQESVTEQDSKDSTYSLSSTLTLSKADYEKHKVYACEVTHQGLSSPVTKSFNRGEC
heavy 2: not shown
light 2: DVVMTQSPSTLSASVGDRVTITCQASQNIDSNLAWYQQKPGKAPKFLIYYASNLPFGVPSRFKGSGSGTEFTLTISSLQPDDFATYYCQSADVGSTYVAAFGGGTKVEIKRTVAAPSVFIFPPSDEQLKSGTASVVCLLNNFYPREAKVQWKVDNALQSGNSQESVTEQDSKDSTYSLSSTLTLSKADYEKHKVYACEVTHQGLSSPVTKSFNRGEC

How the values were obtained:
human CD37 [1] = target: T1, human CD37 (human, UniProt P11049 1-281); assay: competitive radioligand binding on Ramos cells; ratio to Ki of NNV009 (assumed 2.3)
T1 construct: whole, on cells; also called CD37 antigen
T1 sequence (looked up): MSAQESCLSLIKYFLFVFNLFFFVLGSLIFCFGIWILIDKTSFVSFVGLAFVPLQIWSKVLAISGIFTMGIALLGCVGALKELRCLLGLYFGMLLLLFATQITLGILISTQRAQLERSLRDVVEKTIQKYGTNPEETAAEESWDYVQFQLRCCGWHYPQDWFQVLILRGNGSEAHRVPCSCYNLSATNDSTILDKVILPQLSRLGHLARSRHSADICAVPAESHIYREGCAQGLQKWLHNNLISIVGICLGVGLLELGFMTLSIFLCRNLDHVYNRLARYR
Description: (§1) The Eppendorf LoBind tubes 1.5 mL were used to prepare dilutions (working concentrations) of Abs. As much as 0.2 mL of the cell suspension (800 000 cells/tube), after it has been cooled down for 30 min on ice, was aliquoted to glass 12×75 mm counting tubes. Each tube was pre-labeled with a code specifically determining each sample. The tubes with cells were maintained on ice for whole time course of the experiment except for the time when counted on the gamma counter. The tubes were agitated on a planetary shaker at 350 RPM, 4° C. (on ice) for 15 min. […] The tubes were placed on the planetary shaker (GL 064), on ice, and shaken for 4 hours at 350 RPM. After 3.5 hours past from the beginning of incubation, the samples were assayed on Wizard2 gamma counter using protocol “Lu-177 General” (all detectors except for the detector #3 were used). Upon completion the counting, the cells were washed with ice-cold 0.5 mL 0.5% BSAPBS three times. All the tubes were assayed on the Wizard2 gamma counter again using the same sequence and parameters as before the washing.

human CD37 [2] = target: T1, human CD37; assay: competitive radioligand binding on Ramos cells against 177Lu-NNV009 (2.7 nM), gamma counting
Description: as §1

[3] = target: FcγRIIIa-V158 on Promega Jurkat effector cells (UniProt P08637 17-254, limits assumed); assay: cell-based or functional assay

Row | Binder | Ki(NNV009)/Ki(NNV020 var.) (human CD37 [1]) | EC50 (human CD37 [2]) | Ki (human CD37 [2]) | average potency of the ADCC response (Example 13) [3] | efficacy (Emax) relative to NNV024, ADCC FcγRIIIa-158V reporter assay [3]
1 | B1 | 5.45 fold | 0.917 nM | 0.422 nM |  | 
2 | B2 | 5.22 fold | 0.959 nM | 0.441 nM |  | 
3 | B3 | 4.36 fold | 1.15 nM | 0.528 nM |  | 
4 | B4 |  |  |  | 21.3 nM | 75%
5 | B5 |  |  |  | 0.9 nM | 53%
